Measured values as given in US20260144239A1, “Immune Cell-Engrafted Non-Human Animals and Non-Human Animal Models” (LAPIX Therapeutics, Inc., priority 2022, published 2026).

What was measured:
[1] = system: engrafted mice; assay: Immunogenicity in engrafted mice (NRGS mice with human immune system), antibody titers by ELISA; format: in vivo, mouse
Description: (§1) Three healthy human donors were used to generate three engrafted mice designated HD1, HD2 and HD3. On Day 29 and Day 36, HD1, HD2 and HD3 were administered FVIII. The same amounts of antigen were administered to three C57B/6 control mice on the same date. Two weeks later (on Day 43), blood from each mouse was collected. Titers of mouse anti-FVIII antibodies, human anti-FVIII antibodies, mouse anti-GAA antibodies and human anti-GAA antibodies were measured using ELISA (FIGS. 8A-8B).
as §1, with “GAA.” for “FVIII.”, “anti-GAA” for “anti-FVIII”, “anti-FVIII” for “anti-GAA”, “8C-8D).” for “8A-8B).”
(§2) Healthy human donors were used to generate eight engrafted mice. […] The same amount of antigen was administered to three C57B/6 control mice on the same date. Two weeks later (on Day 43), blood from each mouse was collected.
(§3) Healthy human donors were used to generate 11 engrafted mice. […] The same amount of antigen was administered to three C57B/6 control mice on the same date. Two weeks later (on Day 43), blood from each mouse was collected.

[2] = system: C57B/6 control mice; assay: Immunogenicity in C57B/6 control mice, antibody titers by ELISA; format: in vivo, mouse
Description: as §1
as §1, with “GAA.” for “FVIII.”, “anti-GAA” for “anti-FVIII”, “anti-FVIII” for “anti-GAA”, “8C-8D).” for “8A-8B).”
as §2, §3

[3] = system: engrafted mice; assay: Human CD20 on B cells of engrafted mice that developed antibodies (flow cytometry); format: in vivo, mouse; conditions: CD20+/CD19+ cells (FIGS. 9A-9C)
Text: Presence of human CD20 was detected on B cells of mice that developed antibodies to different biologics. CD20 is expressed on activated, antibody-producing B cells.

[4] = system: humans; conditions: in vivo; cited from earlier work

Substance: GAA: biologic antigen administered to engrafted and C57B/6 mice; abbreviation not spelled out in the text
- percent of engrafted mice that developed human antibodies to the administered antigen ([1]; 12 (FVIII), 14 (GAA), eight (IFN-β), 11 (AAV9) engrafted mice, antigen Day 29 and Day 36, blood Day 43, ELISA): 100%
- engrafted mice that developed mouse antibodies to the administered antigen ([1]; antigen Day 29 and Day 36, blood Day 43, ELISA): none
- mouse antibody titer to the antigen not administered (anti-FVIII after GAA, anti-GAA after FVIII) ([1]; engrafted mice): none
- human antibody titer to the antigen not administered (anti-FVIII after GAA, anti-GAA after FVIII) ([1]; engrafted mice, specificity control of titer assay): None
- engrafted mice that developed human antibodies to the administered antigen (number of mice) ([1]; three engrafted mice (HD1, HD2, HD3), antigen on Day 29 and Day 36, blood on Day 43, ELISA): all three
- observed immunogenicity rate in the engrafted mice ([1]; three engrafted mice, human antibodies to administered antigen, antigen Day 29 and Day 36, blood Day 43): about 100%
- mouse antibody titer to the antigen not administered (anti-FVIII after GAA, anti-GAA after FVIII) ([2]; C57B/6 control mice): none
- human antibody titer to the antigen not administered (anti-FVIII after GAA, anti-GAA after FVIII) ([2]; C57B/6 control mice, specificity control of titer assay): None
- percent of C57B/6 mice that developed mouse antibodies to the administered antigen ([2]; six (FVIII), 5 (GAA), three (IFN-β), three (AAV9) C57B/6 mice): 100%
- percent of C57B/6 mice that developed mouse antibodies to the administered antigen ([2]; three C57B/6 mice, first experiment (FIG. 8B, 8D)): 100%
- CD20-expressing B cells after antigen exposure [3]: had CD20-expressing B cells
- clinically reported immunogenicity rate in humans [4]: 89-100%
